B1: XPA.92.042 (antibody, V domains shown)
VH: EVQLVQSGTEVKKAGDSLKISCKGSGYNFDTYWIGWVRQMPGRGLEWMGTIYPADSDTRYSPSFQGQVTMSADKSISTAYLQWGSLRASDTAMYYCARFSSSAYDIWGQGTMVTVSS
VL: SYELTQPPSVSVSPGQTARITCSGDALPRKFAYWYQQKSGQAPVLVIYQDTKRPSGIPERFSGSSSGTTVTLTISDVQAEDDADYYCQSADRSDSYVFGAGTKLTVLG
B2: XPA.92.099 (antibody, V domains shown)
VH: QVQLVESGGGLVKPGRSLRLSCAASGFTFNRYAMSWVRQAPGKGLEWVAMISFDGGNQYYTDSVSGRFTISRDNSKTTLFLQMDSLRTEDTAVYYCVRSPAGDWVAYFDYWGQGTLVTVSS
VL: DIQMTQSPSSLSASIGDRVTIPCQASEDISNHLSWYQQKPGKAPKPLIFDASDLETGVPSRFSGSGSGTDFALTISSLRPDDFATYYCHQYHDYPSYTFGHGTKLEIKR
B3: XPA.92.019 (antibody, V domains shown)
VH: EVQLVESGGGLVQPGRSLRLSCAASGFTFSYYGMHWVRQAPGKGLEWVADISNDGSNKYYADSVKGRFTISRDNSKTTLYLQMNSLRPEDTAVYYCATPYYDSSGLDYWGQGTLVTVSS
VL: SYELTQPPSVSVSPGQTARITCSGDALPKRFAYWYQQKAGQAPVLVIYEDNKRPSGIPETLSGSSSGTTATLTISGAQEEDEADYYCYSTDNTGGLWVFGGGTKLTVLG

Key:
[1] = molecular target: mouse IL-2 Rβγ on mouse primary NK cells (mouse) (UniProt P16297)
[2] = molecular target: recombinant human IL-2 (human) (UniProt P60568)
[3] = molecular target: recombinant human IL-2 (human) (UniProt P60568); remark: listed apart in the source
[4] = molecular target: recombinant human IL-2 (human) (UniProt P60568); remark: listed apart in the source
[5] = molecular target: recombinant human IL-2 (human) (UniProt P60568); remark: listed apart in the source
[6] = molecular target: recombinant human IL-2 (human) (UniProt P60568); remark: listed apart in the source
[7] = molecular target: recombinant human IL-2 (human) (UniProt P60568); remark: listed apart in the source
[8] = molecular target: recombinant human IL-2 (human) (UniProt P60568); remark: listed apart in the source
[9] = molecular target: recombinant human IL-2 (human) (UniProt P60568); remark: listed apart in the source
rat IL-2 = molecular target: T1, rat IL-2 (rat, UniProt P17108); assay: SPR (Biacore 4000), antibody captured on anti-human IgG Fc, IL-2 30 nM to 1 nM; affinity estimate
T1 sequence: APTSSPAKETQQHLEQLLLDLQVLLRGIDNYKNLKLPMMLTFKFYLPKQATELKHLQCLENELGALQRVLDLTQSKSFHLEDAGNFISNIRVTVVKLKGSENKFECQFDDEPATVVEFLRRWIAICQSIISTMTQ
Description: Antibody affinities were measured by SPR using the Biacore 4000 with a standard capture methodology. Briefly, anti-human IgG (Fc specific) from an anti-human antibody capture kit (Biacore) was immobilized onto spots 1, 2, 4, and 5 of all four flow cells of a CM-5 sensor chip by amine coupling according to the manufacturer's instructions. Running buffer was HBS-EP+ with 1% BSA. […] Data were analyzed using the Biacore 4000 Evaluation software.
These sequences were imported into vector NTI® (Lifetech) and aligned using the alignx tool.

Molecule | EC50 of IL-2-induced phosphorylation of STAT5a,b, mouse primary NK cells, IL-2 pre-complexed with 100 nM antibody [1] | EC50 of IL-2-induced phosphorylation of STAT5a,b, NK-92 cells, with isotype control [2] | EC50 of IL-2-induced phosphorylation of STAT5a,b, mouse primary NK cells, with isotype control [3] | fold right-shift in EC50 of IL-2-induced CD69 on Tregs, IL-2 pre-complexed with 200 nM antibody [4] | fold EC50 shift of IL-2-induced pSTAT5a,b, CTLL-2 (muRαβγ) [5] | fold EC50 shift of IL-2-induced pSTAT5a,b, Mouse Primary NK cells (muβγ) [5] | fold shift in EC50 of IL-2-induced phosphorylation of STAT5a,b, NK-92 cells, relative to isotype control [2] | fold EC50 shift of IL-2-induced proliferation, BaF3/IL-2 HuRβγ [6] | fold EC50 shift of IL-2-induced proliferation, NK92 (huRαβγ) [6] | fold EC50 shift of IL-2-induced proliferation, CTLL-2 (muRαβγ) [7] | fold EC50 shift of IL-2-induced pSTAT5a,b, Human Primary NK cells (huRβγ) [8] | fold EC50 shift of IL-2-induced pSTAT5a,b, NK92 (huRαβγ) [8] | fold right-shift in EC50 of IL-2-induced CD69 on CD56bright NK cells, IL-2 pre-complexed with 200 nM antibody [9] | fold shift in EC50 of IL-2-induced CD69 on Tregs, IL-2 pre-complexed with 200 nM antibody [4] | Kd (rat IL-2)
IL-2/MAB602 complex (from UniProt P60568) | 0.361 nM |  |  |  |  |  |  |  |  |  |  |  |  |  | 
isotype control (anti-KLH) (antibody) |  | 0.0009 nM | 0.116 nM |  |  |  |  |  |  |  |  |  |  |  | 
MAB602 (antibody) |  |  |  | 5 to 10 fold | 227 fold | 3 fold | 1000 fold | 1.2 fold | 15 fold | 18 fold | 10 fold | 959 fold | 5 to 10 fold |  | 
B1 |  |  |  |  | 793 fold | 14 fold |  | 5 fold | 52 fold | 156 fold | 41 fold | 1860 fold |  |  | 
B2 |  |  |  |  | 293 fold | 17 fold |  | 2.4 fold | 22 fold | 54 fold | 24 fold | 495 fold |  |  | 
B3 |  |  |  |  | 523 fold | 15 fold |  | 5.2 fold | 33 fold | 130 fold | 40 fold | 966 fold |  | 10 to 15 fold | > 1000 nM

From patent publication US20210188969A1, “ANTIBODIES THAT BIND INTERLEUKIN-2 AND USES THEREOF” (published 2021)
